Values belong to the binder of their own block, whether it stands above or below them.
Tests used:
[1] = molecular target: T1, recombinant human PD-L1 expressed with a C-terminal mouse IgG2a Fc tag (human); assay: SPR Biacore 3000: 500 nM mAb alone (no hPD-1.hFc) over captured hPD-L1.mFc surface, control
T1 construct: also called hPD-L1-mFc; hPD-L1.mFc

[2] = molecular target: PD-1 chimera: extracellular domain of human PD-1 with trans-membrane and cytoplasmic domains of human CD300a, … (human, UniProt Q9UGN4 181-299, limits assumed); assay: cell-based or functional assay
[3] = molecular target: T2, recombinant human PD-1 dimer expressed with a C-terminal mouse IgG2a Fc tag (human); assay: competition ELISA: 1.5 nM hPD-1-mFc to coated hPD-L1-hFc
T2 construct: also called hPD-1-mFc

monkey PD-1 with mFc [4] = molecular target: T3, monkey PD-1 with mFc (monkey); assay: SPR, captured mAb, 37 C;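 note: Real-time Biacore surface plasmon resonance biosensor readout of PD-1 reagent binding to purified anti-PD-1 monoclonal antibodies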
T3 construct: also called monkey PD-1-mFc; monkey PD-1 dimer
T3 chain: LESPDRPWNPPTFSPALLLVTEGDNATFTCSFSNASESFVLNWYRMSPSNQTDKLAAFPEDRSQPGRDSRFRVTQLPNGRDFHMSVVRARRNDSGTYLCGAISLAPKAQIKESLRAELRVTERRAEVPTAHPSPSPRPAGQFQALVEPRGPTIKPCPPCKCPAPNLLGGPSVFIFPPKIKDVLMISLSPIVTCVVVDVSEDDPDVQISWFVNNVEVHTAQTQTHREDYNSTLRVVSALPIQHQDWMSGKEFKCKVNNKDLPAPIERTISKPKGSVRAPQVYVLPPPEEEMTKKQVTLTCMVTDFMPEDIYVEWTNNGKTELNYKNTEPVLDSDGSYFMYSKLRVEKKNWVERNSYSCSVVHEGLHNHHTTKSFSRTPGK

[5] = molecular target: T4, full length human PD-1 on HEK293/hPD-1 cells (human, UniProt Q15116 25-288); assay: FACS dose response, HEK293/hPD-1 cells
[6] = molecular target: T5, recombinant human PD-1 expressed with a C-terminal human IgG1 Fc tag (human); assay: SPR Biacore 3000: 100 nM hPD-1.hFc + 500 nM mAb to captured hPD-L1.mFc;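 note: inhibition study with anti-PD-1 mAbs, SPR responses tracked in real time and read at the close of each step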
T5 construct: also called hPD-1-hFc; hPD1-hFc

[7] = molecular target: T4, full length human PD-1 on HEK293/hPD-1 …; assay: FACS, 100 nM mAb, HEK293/hPD-1 cells;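 note: antibodies incubated with cells for 15-30 min on ice, bound antibody detected through a secondary F(ab′)2 by flow cytometry, with parental HEK293 cells tested in parallel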
monkey PD-1 with mFc [8] = molecular target: T3, monkey PD-1 with mFc; assay: SPR, captured mAb, 25 C;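 note: purified anti-PD-1 antibodies tested on Biacore 4000 or T200 instruments, rate constants obtained via 1:1 binding model fit, with KD as kd/ka and half-life as ln2/(60·kd)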
[9] = molecular target: T6, dimeric biotinylated human PD-1 protein with a C-terminal human Fc tag (human, biotinylated (sites not given)); assay: competition ELISA: 200 pM biot-hPD-1-hFc to coated hPD-L1-mFc
T6 construct: also called biot-hPD-1-hFc

[10] = molecular target: T4, full length human PD-1 on HEK293/hPD-1 …; assay: FACS, 100 nM mAb
[11] = molecular target: T2, recombinant human PD-1 dimer expressed …; assay: BLI Octet: 100 nM hPD-1-mFc + 500 nM mAb to captured hPD-L1-hFc

B1: H4H9019P (antibody, V domains shown)
VH: EVQLVESGGGVVRPGGSLRLSCAASGFTFDDYGMSWVRQVPGKGLEWVSGISWNDGKTVYAESVKGRFIISRDNAKNSLYLEMNSLRAEDTALYYCARDWQYLIERYFDYWGQGTLVTVSS
VL: not shown
notes: fully human; H4H prefix (human IgG4 Fc)
500 nM of anti-PD-1 monoclonal antibody (RU) [1]: -2 RU | Concentration (M) of Antibody at 150% activation [2]: 1.79e-08 M | Emax mean [%] @ 100 nM [2]: 180% | % blocking at 200 nM antibody [3]: 98% | IC50 [3]: 1.3 nM | 100 nM Monkey PD-1-mFc Bound (RU) (monkey PD-1 with mFc [4]): 36 RU | Kd (monkey PD-1 with mFc [4]): 3.17 nM | t1/2 (monkey PD-1 with mFc [4]): 45 min | EC50 [5]: 1.4 nM | Max Geom. Mean MFI @ 100 nM [5]: 29200 MFI | binding of the mixture (RU) [6]: -1 RU | MFI [7]: 8610 MFI | 100 nM Monkey PD-1-mFc Bound (RU) (monkey PD-1 with mFc [8]): 31 RU | Kd (monkey PD-1 with mFc [8]): 1.97 nM | t1/2 (monkey PD-1 with mFc [8]): 129 min

B2: H4xH8999P (antibody, V domains shown)
VH: QLQLQESGPGLVQPSETLSLTCTVSGDSISSTAYHWDWIRQPPGKGLEWIGTITYNGNTYFNPSLKSRVTISVDTSKNQFSLKLLSMTAAETAVFYCARHLGYNSDFFPFDFWGQGTLVTVSS
VL: not shown
notes: human IgG4 Fc with 2 or more amino acid changes (US20100331527)
500 nM of anti-PD-1 monoclonal antibody (RU) [1]: 1 RU | Emax mean [%] @ 100 nM [2]: 217% | % blocking at 200 nM antibody [3]: 88% | IC50 [3]: 1.3 nM | 100 nM Monkey PD-1-mFc Bound (RU) (monkey PD-1 with mFc [4]): 83 RU | Kd (monkey PD-1 with mFc [4]): 0.7 nM | t1/2 (monkey PD-1 with mFc [4]): 23 min | % Blocking [6]: 100% | binding of the mixture (RU) [6]: 0 RU | MFI [7]: 28900 MFI | 100 nM Monkey PD-1-mFc Bound (RU) (monkey PD-1 with mFc [8]): 126 RU | Kd (monkey PD-1 with mFc [8]): 0.21 nM | t1/2 (monkey PD-1 with mFc [8]): 100 min

B4: H4xH9135P2 (antibody, V domains shown)
VH: EVQLVESGGSVVRPGGSLRLSCVVSGFTFEDYGLSWVRQIPGKGLEWVSGISWTGGNTGYADSVKGRFTISRDNAKNSLYLQMNSLRAEDTALYHCTRDRQWLMQWYFDYWGQGTLVTVSS
VL: not shown
notes: as for B2
% blocking at 50 nM antibody [9]: 96% | IC50 [9]: 0.15 nM | ratio of MFI HEK293/hPD-1 to HEK293 parental cells [10]: 82.2 | 500 nM of anti-PD-1 monoclonal antibody (RU) [1]: -3 RU | Concentration (M) of Antibody at 150% activation [2]: 1.55e-09 M | Emax mean [%] @ 100 nM [2]: 193% | % blocking at 200 nM antibody [3]: 97% | IC50 [3]: 1.1 nM | 100 nM Monkey PD-1-mFc Bound (RU) (monkey PD-1 with mFc [4]): 52 RU | Kd (monkey PD-1 with mFc [4]): 2.32 nM | koff (monkey PD-1 with mFc [4]): 0.000794 s⁻¹ | kon (monkey PD-1 with mFc [4]): 342000 M⁻¹ s⁻¹ | t1/2 (monkey PD-1 with mFc [4]): 15 min | EC50 [5]: 0.105 nM | Max Geom. Mean MFI @ 100 nM [5]: 32800 MFI | % Blocking [6]: 102% | binding of the mixture (RU) [6]: -3 RU | MFI [7]: 9380 MFI | 100 nM Monkey PD-1-mFc Bound (RU) (monkey PD-1 with mFc [8]): 74 RU | Kd (monkey PD-1 with mFc [8]): 0.602 nM | koff (monkey PD-1 with mFc [8]): 0.000143 s⁻¹ | kon (monkey PD-1 with mFc [8]): 238000 M⁻¹ s⁻¹ | t1/2 (monkey PD-1 with mFc [8]): 81 min

B5: H4xH8992P (antibody, V domains shown)
VH: EVQLVESGGGLVQPGRSLRLSCVASGFALHDYAMHWVRQVPGKGLEWVSSISWNSGVIGYADSLKGRFTISRDNAKNSLYLQMNSLRAEDTALYYCAKGSGSYYVSWFDPWGQGTLVTVSS
VL: not shown
notes: as for B2
500 nM of anti-PD-1 monoclonal antibody (RU) [1]: 3 RU | Emax mean [%] @ 100 nM [2]: 178% | % blocking at 200 nM antibody [3]: 93% | IC50 [3]: 1.3 nM | 100 nM Monkey PD-1-mFc Bound (RU) (monkey PD-1 with mFc [4]): 86 RU | Kd (monkey PD-1 with mFc [4]): 4.38 nM | t1/2 (monkey PD-1 with mFc [4]): 8 min | binding of the mixture (RU) [6]: 2 RU | MFI [7]: 17500 MFI | 100 nM Monkey PD-1-mFc Bound (RU) (monkey PD-1 with mFc [8]): 122 RU | Kd (monkey PD-1 with mFc [8]): 1.24 nM | t1/2 (monkey PD-1 with mFc [8]): 46 min

B6: H2aM7794N (antibody, V domains shown)
VH: QLQLQESGPDLVKPSDTLSLTCTVSDDSISSTTYYWAWIRQPPGKGLEWIGSMSYNGNNYYNPSLKSRVAISAGTSQKQFSLKLTSVTAADTAVYHCARHLGYNGNWYPFDFWGQGILVTVSS
VL: not shown
notes: human variable regions, mouse IgG2a Fc; also called H2M7794N
% blocking at 50 nM antibody [9]: 99% | IC50 [9]: 0.23 nM | % Blocking [11]: 114% | binding of the mixture (nm) [11]: -0.01 nm | ratio of MFI HEK293/hPD-1 to HEK293 parental cells [10]: 71 | Concentration (M) of Antibody at 150% activation [2]: 4.09e-08 M | Emax mean [%] @ 100 nM [2]: 170% | % blocking at 200 nM antibody [3]: 95% | IC50 [3]: 1.1 nM | EC50 [5]: 1.37 nM | Max Geom. Mean MFI @ 100 nM [5]: 16400 MFI | MFI [7]: 19100 MFI

These reach a lower IC50 [3]. Values come first.

% blocking at 50 nM antibody [9]: 97% | IC50 [9]: 0.35 nM | ratio of MFI HEK293/hPD-1 to HEK293 parental cells [10]: 51.2 | 500 nM of anti-PD-1 monoclonal antibody (RU) [1]: -8 RU | Concentration (M) of Antibody at 150% activation [2]: 2.4e-09 M | Emax mean [%] @ 100 nM [2]: 185% | % blocking at 200 nM antibody [3]: 90% | IC50 [3]: 0.93 nM | 100 nM Monkey PD-1-mFc Bound (RU) (monkey PD-1 with mFc [4]): 94 RU | Kd (monkey PD-1 with mFc [4]): 4.04 nM | koff (monkey PD-1 with mFc [4]): 0.000609 s⁻¹ | kon (monkey PD-1 with mFc [4]): 151000 M⁻¹ s⁻¹ | t1/2 (monkey PD-1 with mFc [4]): 19 min | EC50 [5]: 0.232 nM | Max Geom. Mean MFI @ 100 nM [5]: 30600 MFI | % Blocking [6]: 106% | binding of the mixture (RU) [6]: -6 RU | MFI [7]: 11600 MFI | 100 nM Monkey PD-1-mFc Bound (RU) (monkey PD-1 with mFc [8]): 84 RU | Kd (monkey PD-1 with mFc [8]): 2.08 nM | koff (monkey PD-1 with mFc [8]): 0.00015 s⁻¹ | kon (monkey PD-1 with mFc [8]): 72400 M⁻¹ s⁻¹ | t1/2 (monkey PD-1 with mFc [8]): 77 min
B3: H4xH9145P2 (antibody, V domains shown)
VH: QVQLVESGGGVVQPGRSLRLSCSASGFTFSAYAMHWVRQAPGKGLEWVAAISYGGSDKYYADSVKGRFTISRDNSKNTLYLQMNSLRTDDTAVYYCAKSAHWNFFFDYWGQGTLVTVSS
VL: not shown
notes: as for B2

% blocking at 50 nM antibody [9]: 96% | IC50 [9]: 0.39 nM | ratio of MFI HEK293/hPD-1 to HEK293 parental cells [10]: 91.9 | 500 nM of anti-PD-1 monoclonal antibody (RU) [1]: 1 RU | Concentration (M) of Antibody at 150% activation [2]: 1.1e-08 M | Emax mean [%] @ 100 nM [2]: 166% | % blocking at 200 nM antibody [3]: 98% | IC50 [3]: 1 nM | 100 nM Monkey PD-1-mFc Bound (RU) (monkey PD-1 with mFc [4]): 46 RU | Kd (monkey PD-1 with mFc [4]): 6.06 nM | koff (monkey PD-1 with mFc [4]): 0.000502 s⁻¹ | kon (monkey PD-1 with mFc [4]): 82900 M⁻¹ s⁻¹ | t1/2 (monkey PD-1 with mFc [4]): 23 min | EC50 [5]: 0.48 nM | Max Geom. Mean MFI @ 100 nM [5]: 34100 MFI | % Blocking [6]: 100% | binding of the mixture (RU) [6]: 0 RU | MFI [7]: 9980 MFI | 100 nM Monkey PD-1-mFc Bound (RU) (monkey PD-1 with mFc [8]): 52 RU | Kd (monkey PD-1 with mFc [8]): 1.91 nM | koff (monkey PD-1 with mFc [8]): 0.000112 s⁻¹ | kon (monkey PD-1 with mFc [8]): 58400 M⁻¹ s⁻¹ | t1/2 (monkey PD-1 with mFc [8]): 104 min
B7: H4xH9120P2 (antibody, V domains shown)
VH: QVQLVQSGAEVKRPGASVKVSCKASGYTFTSFYMYWVRQAPGQGLEWMGIINPSDGSTSNAQKFQGRVTMTRDTSTSTVYMELSSLRSEDTAVYYCARRVAGDIFDIWGQGTMVTVSS
VL: not shown
notes: as for B2

From patent publication US20150203579A1 (Regeneron, published 2015)
